Results: patent US20230226096A1 (Orna Therapeutics, Inc., priority 2020, published 2023)

B1: Crohivirus A (nucleic acid)
DNA: GTTGAAGTCCATTTCTTGCTTGCCCCCGATGAATCCTGTTAAGGCCTCACGGCCCTAAGGGTGAAACTCGGTTATCCCCTCCTGTACTTCGAGAAGATTAGTACAACACTATGAAATCTACATCTTGTGATCCGGGATAACCCCAATCCCAGAAACCTGTGATGGGCGTCACCACCCCTCTTATGGTAACATAAGGGTGTCGCCGCGTTGGCACAGGACCCTTTGGGCTGGATGTTTTTAGTAATGGTGTCGAAGGTCCTATTGAGCTACAGGAGTTTCCTCCGCCCTGGTGAATGCGGCTAATCTTATCCCTGAGCCTAAGGTTGCGATCCAGCAACTTGATGGTCGTAATGCGTAAGTTGGGGGCGGAACCGACTACTTTCCAGAAGGCGTGTTTCTTTGTTTTGTCTGTTACTATGGTGCATGATATAGATATTGAATATTTGATCTTTTTGAGCTGTTTCTTATCTTATTGCTACATCCTTTCAGGTGTTGGATTTACATTTTGGTTAATAAG
modifications: Crohivirus A
B2: Kunsagivirus B (nucleic acid)
DNA: GATTTTCTGGTTATCCCTTTTGGACTTGGTAGGGGCCCACGTGCCCACCCACCTCTGTGTGTGTTGATTTCTAATCGATGCCTGGCAGTGGCGGCCACCTCTCCTTACTGGTAAACCTCCGGTGAGTGAAGTTGTCAAGCTACAGGTACCGTGCAGGATGAAATGCGCACATGTGAACAAACTAGGAGTCATACACCGGGTCAAACTCTGGAAACGGAGTCCGGGACTCTGACCTTGGTTGGGTGAGCTCGAGGCATCACATTGATGGACGCGATTCGCTATCCTTCCCTAGTAGGACCTTGTGGTGTACCCCTGGTTGGGAATCCAGGGCTGGTCGGGTGCAGGGTGACAGCCTGTTCTCCACCTCAACCATTGTAGGAGAAATCAACCCCT
modifications: Kunsagivirus B
B3: Aquamavirus (nucleic acid, listed as Aquamavirus sp.)
DNA: TTCAAAGGTGGCGGGAGAGTTGGCCTCACGCTGTTTAGCGTGAGAGCTGGCTCTCCTGCCCCTTCCCCTGAGCCGGGGATCTTGGCTCATTCCCCTCTTTTCTATCCTCCCTCATTGGACTTTACGGATGACCCGGCATAAACTTGACAACCGATGTTGGATTTCCCTTGTGGCTGTGATGGAGGACATACCCTCGGGTGTAGTTGTGTGCGTGTCGCTCTGCGACTCGAGCTTCAAAGTGGTGCTGAAATATTGCAAGCGTCGTTGCTCGATTAACGGAGTGGTACAATCCTATGAACCCAAGTGCATTCATGCGAAAGCCCCGGAGGGGTGAGTAGCATGGACTCGAATCAGAAGAGCTGGAGCTCGCTTGGTACGGCACGTAGCATTGCTTTGCCTAAAGACCAAGGGGGTATGGCTATAGGTGGGGGCCTATAGCTTGTCCAGTGCTGGTTGACAGACTCGTGCTACGCGTCTGGTTCGAGTATAAGTAGCTGCAACTCACT
B4: Fipivirus E (nucleic acid)
DNA: CTCTTCCGATCTTGGGGGTTCGCCCCCATGTCTCATTTCAACTAGCCGTGTGTCTAGTTAACGCACCGCCTCACCCTGGTCGTTATCGGGTCGGTTCTTGCGACCGTTAGATCGTGAGCGTTTCTGAGGATCAGTTCGTATAAGTTCTCCGGTGTGGCGACCGTAAAATCGTCACGTCCCATGCAATAGATGACGTTAAACTCGTTTGCCAGTTACATAAAGGAATGTTGTTACTTTTAAATTGTCTGTTACATTTAACATCTTGCCAGTATGATGCTACTGTACACTACGGGTGTAGGAACCTTGTAGTGTGACGTATCACTCATATGTGGATGGGTGCTCCAGACCTTTATGGAAGCTCTCAGTTAGTAGTGATCCTTGACTTCATTGAGCCCTGGTAACAGTGGAAGTCAAGATGTATATGTTGCTCAACACACTTCGGTGCTACGAAGCTGTTTGTGGAAGTACTGGCGAGGTTCATTCTGAATCATATGTTTGTCACATAGTCAGGGAGTGCCGTCGCTTACGACGGACCCTTTTTCTTTATAATTACAAATCTGTGTCTCAAGTGTTGTTGGCTGGTTTTCTTCTTCTGTTTTCATTGTTCATATATATACGTCAGAGTGAAAGACTCGGTATATACAAAACTGATCCAGA
modifications: Fipivirus E
B5: Limnipivirus A (nucleic acid)
DNA: TTCTTTGGATATCCATTTAACGTGTACCCTATACGATAATTGGGGTGGATTCTGGATGCCTAGTTCCAGTGATTGGTTAAGAACTCGTTTACTACGTATAGTATGATTAGCAAAGTGCTCGATTGATCACGTAATGATCTATGTGGTTAAAAACCCAGTAGTATGGTATATACTCAGTAGTGTACACTGTGAGTACAACTCTTGGCGTAGAGAGAACAATTCACCCGAATCCGTGGCGTATCCATGGAAATAAGTTTACCTAATTGTATGTTACAAGGCATATGAGACATTTATGAGATATGGTTTATTTTGACTAAACGAGTGTAGAGGTGGTGGAGTCTATCCAACTTCAAGCCATGCAATTGTTGTGTTGATTGATATCATTGACCATTTTTGTGGATTGTGTACACATACAATTTGAAAATTAACCCCCTCAAGAATAAGACATGGGACCATTCGTGGTAGATACCGTGCTCGGATGCTTGAGATTAGATGGGTTAGACTAGTTTTGGAATGAGATTGCCGAGAAAGTCCCGCTAGACATGTTTTACAAGTCGTGGTATTCCGCTAGACTTTTTCGCAGACACATGGAAGGGTCCATGTGTTGTGCAATTGCAGGGTGACAGCCCAACTGCAGAGTTTTCCTTACTAGAATAAAAATCTGTTGTCAATTTT
modifications: Limnipivirus A
B6: Orivirus (nucleic acid, listed as Orivirus sp.)
DNA: GGTCCCAGGCCAATATTCTTCGTAAGGCTTGGTTCCAATTTTCCACCACTCGTGTTTGGGTTCTGGCCTATGGTACCCAGAGGGGCGGTTTGGGGGAATTAACTCCCCCTCCCCTGTGGTCCTATACCACCCCACACCTCTGTGGGCTTTCTTTACTATCTTCTTGTTTTCCGACTTTTAAACACTAGGCAGGCGCGCCTAGTCATACACCGCCCGGCTGGTCTTTCCAGCTCTTGTGGGCGGTGCGCGCTGGTCCATCGTGCCCAGCGACATAGCACCTTGTGGACACCTCCGAACGCCCTCCCCTGTATGGGGTGGTGCCCAGGGGTTTCAGTGTGGTGACACACTCCCTGGGGCCCGAAAGGCTAGTGTGCAACAGGTGAGGTACAGCCAGCTGCCCCCGTGGCTGGAGGGACCAAGCTTGTGAAGCACACCTCACCTTCTTGGGGGTGGGCTAGTAAGTGGTGAAAGCATAGTGTCCGTGTCGCTGGCCAACACTTTGGGTCAAGTCCAGCCACTCAGTGAGTAGATGCCCAGGAGGTACCCCTAGTGGATCTGACTTGGGGCCTGTTACTTAATGCAGGTTAAAAACTATGAAAGCTGAGTAGTGTAGCCCGGCTGGTGGCTTCTCTTCCTTATTCATTCTATTTTATGGTGACAAACGCAACTGAAGCC
B7: Avisivirus B (nucleic acid)
DNA: CACCCCCTACTGCCCTAACCCCCAAAGTTAGTTATAGGGTGGCTCCCTACCCTTACTCCACGGGGTAAGCCCTAACCCGGTTGAATCTCAAGATCAGCCTTAGCGAGGACTATTAGTACCGCTCAAACCCTTTGCCTGTAGTGCCCAGGGGTCACAGAGGGGTGACCCTCTCCCTGGGGCCCAAAAGGCTAGGTGGCAAGACAGGGTCCAAGTGAGGGGCTACTCTAAGTAGCCCCAAGCTGAACATCCTGTCTGAAGCCACCCTTGCAGGGCCAGGTTTGATTGGGGAAACTAGACACCAGCTTTGTCCTGGGATTGGGGGGATATCGAGTTAGTCCAGGAGGTGCGAGTAGATGCCCCCGAAGGTACCCCAGGCACATCTGGGATCTGATCGGGGGCCCGTGACTATACAATAGGTAAACCGGGTTAAAAAACATGAAAGCGCCTCTCTCTTTCCTACTTCTTTTATTGACTGGTGACAAAAATAGCAGT
modifications: Avisivirus B
B8: Limnipivirus C (nucleic acid)
DNA: GTTTCTGAGCACTGGTAAGAGCTTAGACAAACGTTTTTAAAATTTATTTTCTCTGCAACTTTTGTTTGTGTTTATTTTTATTTGTTAATTTTGCGCCTAAGCATTTGTTGCGAAGTATTTGATTCATTAGTAATATTACTTATTGTTTATTTAGATGGTATTCAAAGTGGTGGGAGTATCGAACCCAAGCGTCGTATGCTATCTCCTTGAACAATTTTTAATCATTGCGAAGTGATCATTGAAAAGGATAGGTGTTTAAGAACTCAAAGAGTGTTAATAATGTTGGGTGACAGGTGTCCCCATAGAATTTATTAACATGATTTGGACTGGTTATCTAGTAAGAAGAACCATCGAACGCACGAGCGAGCATTGCTTGCGGGGCAGTTACCCTGCGTCGATGTAAGTGTGTACCGGGGGGTGCACATGTTGATTCTTTATGGCCTGATAGGGTGCGTCATTCGCGCCTAGATAATTAGTATAATGCGAATGGAATAAATTTAC
modifications: Limnipivirus C
B9: RhPV (nucleic acid)
DNA: GATAAAAGAACCTATAATCCCTTCGCACACCGCGTCACACCGCGCTATATGCTGCTCATTAGGAATTACGGCTCCTTTTTTGTGGATACAATCTCTTGTATACGATATACTTATTGTTAATTTCATTGACCTTTACGCAATCCTGCGTAAATGCTGGTATAGGGTGTACTTCGGATTTCCGAGCCTATATTGGTTTTGAAAGGACCTTTAAGTCCCTACTATACTACATTGTACTAGCGTAGGCCACGTAGGCCCGTAAGATATTATAACTATTTTATTATATTTTATTCACCCCCCACATTAATCCCAGTTAAAGCTTTATAACTATAAGTAAGCCGTGCCGAAACGTTAATCGGTCGCTAGTTGCGTAACAACTGTTAGTTTAATTTTCCAAAATTTATTTTTCACAATTTTTAGTTAAGATTTTAGCTTGCCTTAAGCAGTCTTTATATCTTCTGTATATTATTTTAAAGTTTATAGGAGCAAAGTTCGCTTTACTCGCAATAGCTATTTTATTTATTTTAGGAATATTATCACCTCGTAATTATTTAATTATAACATTAGCTTTATCTATTTATA
modifications: Rhopalosiphum padi virus
B10: Avisivirus A (nucleic acid)
DNA: TTCACTCGCTTTCCCCCCCTCTCTATAGGGGCGGTCTTTTAATTCTTATTAATTTCCTACTTTACTATCAAATTTCTTCTAAGTAGGGACTGAGGTCACTTAGCCCTCCCTCTCCTGGGCTTTCCAGGGTTATAGAGGTTCTAAAGCTAAGCCATGTGTCTTGAGCTACACTTAGTACAAAGGTTTAGTAATGATTGTACATGCCAGTAACCTTCTAGTGCCCATGGATTAAAGAGTGGTAACACTCTCCATGGGGCCCGAAAGGCTAGTGGGCATAGTTGGCATCAAGGAAGGGGTCCCCACCCCAACCTGAATTGCTGGCTAGAAGCTCACCTTAGAAGAAGTGCTGGGTGACAACGTGTCCAATCGTGAACGACTGATGGAAACGTGTGGAGATGGATATGTGGGGGTTCACTGAGTAGATGCCCTGAAGGAGAAATCTGATCAGGGGCCCGTGACTATACGCTAGGTAAACCGGGTATAAAAACCATGAAAGGTGGCCCAAAATCTCTTCCTTTTATTTTATTTCTATGTTGGTGACAGTCAAG
modifications: Avisivirus A

system: HEK293 cells; format: cell-based, human; details: luminescence from secreted Gluc in supernatant 24 hours after transfection of HEK293 cells; circular RNA encoding Gluc with the named IRES (UTR truncated to 675 nt)

In order of falling Expression:
1. B3  4.51E+06
2. B6  6.09E+05
3. B10  1.91E+05
4. B8  1.35E+05
5. B4  1.10E+05
6. B9  1.10E+05
7. B1  9.96E+04
8. B7  8.68E+04
9. B5  8.30E+04
10. B2  8.01E+04
